Laboratory results as given in the supplement of paper PMC10567573.

B1: SMAD6 (parent)
chain: SGLVRRLWRSRVVPDREEGGSGGG
B2: SMG5 (parent)
chain: QEKLQVLMAEGLLPAVKVFLDWLR

Variants of: B1
Assay: protein stability index of a GFP-peptide fusion (GPS, HEK-293T) (PSI 1-6); higher = more stable
Details: c terminus: a fixed tail appended
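Further: lentivirally expressed fusions sorted by FACS into six bins by GFP to DsRed ratio, PSI derived from sequencing read proportions per bin multiplied by bin number.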

Protein stability index, by site and new letter:
S1: W 2.61
G2: A 2.15 | D 2.93 | E 2.35 | F 2.93 | H 4.14 | K 3.6 | L 3.51 | M 3.19 | N 4.17 | P 4.79 | S 4.17 | V 3.03 | W 2.29
L3: M 4.06 | N 4.73 | Q 3.88 | S 4.38 | T 3.54 | W 4.17
V4: E 4.63 | G 3.41 | K 4.45
R5: A 3.76 | C 2.46 | H 4.21 | I 2.4 | L 1.97 | M 3.3 | Q 3.72 | S 3.27
R6: A 3.27 | C 3.46 | H 4 | M 2.93 | S 3.29
L7: E 3.82 | H 3.55 | I 4.14 | Q 4.4 | S 4 | Y 3.82
W8: K 4.64 | L 4.22 | N 5.26 | Q 5 | S 5.1
R9: G 3.27 | H 3.69 | N 3.96 | P 4.85 | T 2.82
S10: A 3.76 | F 2.4 | H 2.24 | N 3.89 | W 2.6
R11: G 4.98 | I 2.63 | K 4.15 | T 4.68 | W 2.22
V12: C 2.94 | D 4.76 | F 3.69 | I 4.07 | M 4.06 | N 4.22 | P 3.67 | Y 3.1
V13: D 4.88 | F 3.32 | K 4.13 | L 3.99 | W 3.37
P14: D 2.83 | K 4.3 | L 3.18 | N 3.77 | Y 3.02
D15: E 4.31 | H 3.55 | I 2.75 | K 3.35 | M 3.01 | N 3.96 | P 3.62 | T 4.33
R16: E 4.32 | I 3.76 | L 3.34 | M 3.4 | N 4.37 | Q 3.67 | S 4.7 | W 3.25
E17: A 3.47 | C 4.26 | D 4.12 | G 3.86 | K 4.14 | R 2.93 | S 4.07 | T 3.31 | V 3.71 | Y 1.19
E18: A 2.9 | C 2.94 | D 3.82 | F 2.68 | I 4.17 | N 2.42 | P 3.46 | V 3.85 | Y 2.44
G19: A 4.28 | K 4.06 | M 3.35 | P 4.07 | W 2.79
G20: A 4 | C 3.04 | F 2.82 | I 3.06 | L 2.74 | N 3.11 | Q 3.96 | R 4.04 | V 2.44 | W 1.99
S21: D 4.54 | E 3.53 | V 3.37 | W 2.9 | Y 3.09
G22: A 3.84 | C 3.04 | E 4.04 | F 2.98 | I 3.87 | R 4.48
G23: D 5.01 | E 3.9 | F 3.13 | H 3.7 | M 3.25 | N 3.01 | P 3.89 | S 4.47 | V 3.78
G24: C 4.91 | E 4 | F 2.44 | H 2.83 | K 3.78 | Q 3.59 | T 4.01

Variants of: B2
Assay: as above
Details: c terminus: a fixed tail appended

Protein stability index of substitutions, site by site:
Q1: A 2.23 | C 1.53 | D 2.79 | E 3.01 | F 2.89 | G 2.22 | H 1.45 | I 2.95 | K 4.12 | L 3.5
